In this assay the target is human MDM2, full length (CMV driven expression construct pCHDM1A) (human) (UniProt Q00987). Put plainly: cell-based or functional assay.
human MDM2, full length (CMV driven expression construct pCHDM1A) (human), sequence (Q00987 whole entry): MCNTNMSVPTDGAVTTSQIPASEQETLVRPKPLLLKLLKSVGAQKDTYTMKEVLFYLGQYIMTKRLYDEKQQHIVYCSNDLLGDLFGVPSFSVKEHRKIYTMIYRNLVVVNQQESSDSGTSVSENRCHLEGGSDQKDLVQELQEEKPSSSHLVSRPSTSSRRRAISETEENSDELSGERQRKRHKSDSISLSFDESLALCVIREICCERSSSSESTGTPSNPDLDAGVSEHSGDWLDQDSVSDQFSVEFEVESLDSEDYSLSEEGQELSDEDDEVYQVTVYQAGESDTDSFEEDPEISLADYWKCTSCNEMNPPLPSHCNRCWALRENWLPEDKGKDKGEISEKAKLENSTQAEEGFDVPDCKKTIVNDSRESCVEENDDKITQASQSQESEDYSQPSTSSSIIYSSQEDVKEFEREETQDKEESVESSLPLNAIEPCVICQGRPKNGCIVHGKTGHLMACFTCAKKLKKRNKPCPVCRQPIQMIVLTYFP

Take “mouse p19^ARF (complete ORF, expression construct in pVNic) (from UniProt Q64364 1-169)”: the transformed foci in MDM2/RAS REF cotransformation with p19^ARF added (40 foci without) came to 3 foci.

(Values after US6897197.)
